Test results reported in patent US20250388666A1 (BRIGHAM AND WOMEN S HOSPITAL, published 2025).
Where a chain is given by its changes, count along the chain named. In names and notes the source's numbering stands. Like-named read-outs stand apart in the source and are kept apart here.

T1: CEACAM1 (Sino Biological) (human, UniProt P13688 35-428, limits assumed)
T1 construct: may be the same as CEACAM1-HIS; also called hCEACAM1; biotinylated soluble CEACAM1
T1 sequence: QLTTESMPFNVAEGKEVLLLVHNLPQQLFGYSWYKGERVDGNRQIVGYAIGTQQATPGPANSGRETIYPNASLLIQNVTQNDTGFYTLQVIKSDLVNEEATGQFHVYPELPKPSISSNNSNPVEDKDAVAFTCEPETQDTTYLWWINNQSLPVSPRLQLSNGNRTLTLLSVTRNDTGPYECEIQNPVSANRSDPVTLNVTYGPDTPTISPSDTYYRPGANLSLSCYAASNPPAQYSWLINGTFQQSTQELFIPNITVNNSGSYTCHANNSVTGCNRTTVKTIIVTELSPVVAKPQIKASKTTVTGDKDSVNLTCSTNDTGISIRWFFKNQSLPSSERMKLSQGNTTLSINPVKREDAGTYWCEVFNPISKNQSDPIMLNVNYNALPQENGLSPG

T2: CEACAM3 (Sino Biological) (human, UniProt P40198 35-155, limits assumed)
T2 construct: also called hCEACAM3
T2 sequence (looked up): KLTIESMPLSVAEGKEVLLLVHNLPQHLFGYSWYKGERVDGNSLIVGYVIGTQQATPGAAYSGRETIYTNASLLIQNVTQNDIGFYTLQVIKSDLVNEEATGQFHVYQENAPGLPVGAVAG

T3: CEACAM6 (Sino Biological) (human, UniProt P40199 35-320)
T3 construct: also called hCEACAM6
T3 sequence (looked up): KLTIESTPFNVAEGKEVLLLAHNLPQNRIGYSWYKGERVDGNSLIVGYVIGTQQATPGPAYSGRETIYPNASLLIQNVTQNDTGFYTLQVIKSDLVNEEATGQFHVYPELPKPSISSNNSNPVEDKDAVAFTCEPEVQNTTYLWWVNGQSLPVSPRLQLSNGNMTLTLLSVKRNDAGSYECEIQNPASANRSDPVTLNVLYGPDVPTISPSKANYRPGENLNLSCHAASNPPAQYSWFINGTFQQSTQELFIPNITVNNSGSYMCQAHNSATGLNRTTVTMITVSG

B1: He17/L1 (antibody, IgG4, V domains shown)
VH: EVQLLESGGGLVQPGGSLRLSCAASGFSFSDYYLYWVRQAPGKGLEWVATISVGGGQTSYADSVKGRFTISRDNSKNTLYLQMNSLRAEDTAMYYCTRARTYGPAWFAYWGQGTLVTVSS
VL: DIVMTQSPDSLAVSLGERATINCKSSQSLLNSANQKNYLAWYQQKPGQPPKLLIYFASTRESGVPDRFSGSGSGTDFTLTISSLQAEDVAVYYCQSHYPFYYTFGGGTKVEIK
notes: IgG4 S241P, kappa; also called 17 / 1; H17/L1
B2: Parent VH/L4#2 (antibody, IgG4, V domains shown)
VH: B1 VH with A99G, R100L, T101Y
VL: B1 VL with F100Y, Y101P
notes: IgG4 S241P, kappa; also called VHp/L4 #2; VH2 N56Q / 4#2
B3: Parent VH/L18 (antibody, IgG4, V domains shown)
VH: B1 VH with A99G, R100L, T101Y
VL: B1 VL with Y98F, F100Y, Y101P, Y102F
notes: IgG4 S241P, kappa; also called VHp/L18; VH2 N56Q / 18

Tests used:
[1] = target: T1, CEACAM1 (Sino Biological); test: SPR single-cycle
Procedure, shortened: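 Humanized affinity-matured IgGs from crude supernatants captured on Protein A to ~100 RU, with CEACAM1 analyte injected at 25–100 nM (three-point, two-fold) in HBS-P+ without regeneration. 200 s association per injection, 300 s single dissociation; reference-channel and blank subtracted.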

[2] = target: T1, CEACAM1 (Sino Biological); test: SPR multi-cycle, IgG on Protein A
Description: Multi-cycle kinetics analysis was performed on the twelve lead antibodies using a Biacore T200 instrument running Biacore T200 Evaluation Software V3.0.1 (Uppsala, Sweden) to establish an accurate affinity for CEACAM1. The purified antibodies were diluted to a concentration of […] in HBS-P+. At the start of each cycle, each antibody was captured on the Protein A surface to give an RL of ˜100 RU. Following capture, the surface was allowed to stabilize. Kinetic data was obtained using a flow rate of […] to minimize any potential mass transfer effects. For the kinetics analysis, CEACAM1 was used. Multiple repeats of the blank ([…]) and a repeat of a single concentration of the analyte were programmed into the kinetic run in order to check the stability of both the surface and analyte over the kinetic cycles. For kinetic analysis, a two-fold dilution range was selected from 200 to 3.125 nM CEACAM1. The association phase of CEACAM1 was monitored for 275 seconds and the dissociation phase was measured for 250 seconds. Regeneration of the Protein A surface was conducted using two injections of 10 mM glycine-HCL pH 1.5 at the end of each cycle.
The signal from the reference channel Fc1 was subtracted from that of Fc2, Fc3 and Fc4 to correct for differences in non-specific binding to a reference surface, and a global Rmax parameter was used in the 1-to-1 binding model. The relative KD was calculated by dividing the KD of the RSB02 Parent by that of the humanized and affinity matured variants on the same chip.

[3] = target: T2, CEACAM3 (Sino Biological); test: binding ELISA on plate-coated CEACAM (0.5 µg/mL); antibody at 1.67, 0.062 and 0.0069 µg/mL; signal as % of parent IgG on CEACAM1 at 1.67 µg/mL on the same plate
[4] = target: T2, CEACAM3 (Sino Biological); test: as above; remark: listed apart in the source
[5] = target: T3, CEACAM6 (Sino Biological); test: as above

Binder | Kd [1] | fold better than Parent (KD) [1] | Kd [2] | koff [2] | kon [2] | relative KD to Parent [2] | binding result [3] | binding result [4] | binding result [5]
B1 | 78 nM | 2.03 fold | 13.5 nM | 0.00409 s⁻¹ | 302000 M⁻¹ s⁻¹ | 6.31 ratio | no binding (tested: 1.67 µg/mL) | – | –
B2 | 163 nM | 3.38 fold | 147 nM | 0.00437 s⁻¹ | 29800 M⁻¹ s⁻¹ | 1.3 ratio | – | no binding (tested: 1.67 µg/mL) | no binding (tested: 1.67 µg/mL)
B3 | 56 nM | 2.83 fold | 101 nM | 0.00362 s⁻¹ | 35700 M⁻¹ s⁻¹ | 1.84 ratio | – | no binding (tested: 1.67 µg/mL) | no binding (tested: 1.67 µg/mL)
